Results on 1 molecule are retold here after US20170202936A1, “Identification, Optimization And Use Of Cryptic HLA-B7 Epitopes For Immunotherapy” (VAXON BIOTECH, priority 2006, published 2017).

The target in the experiment is HLA-B*0702 (human). Briefly: T2-B7 cells, HLA-B*0702 surface expression (ME-1 mAb); ratio to reference peptide CMV265-274 (SEQ ID NO: 9). The note with it: remark: other sources report otherwise.

B1: TERT444 (peptide)
peptide: DPRRLVQLL
In the case of B1, the RA (relative affinity) is more than 10.
